{"source": "patent US20210113678A1", "about": "(ENTEROME S A, published 2021)", "data": [{"biological_target": "T1, HLA-A*0201 molecule on human T2 cells (human)", "T1 construct": "read out with anti-HLA-A2 antibody BB7.2-PE; also called HLA-A2", "experiment": "T2 cells expressing HLA-A*0201, anti-HLA-A2-PE, FACS", "values": [{"binder": "FLPFGFILV", "note": "[IL13RA2-B]", "mean relative fluorescence intensity at 1.5625 µM peptide": "14.8 % of HIV peptide", "mean relative fluorescence intensity at 3.125 µM peptide": "15.7 % of HIV peptide", "mean relative fluorescence intensity at 6.25 µM peptide": "40.8 % of HIV peptide", "mean relative fluorescence intensity at 25 µM peptide": "86.5 % of HIV peptide", "mean relative fluorescence intensity at 50 µM peptide": "113 % of HIV peptide", "mean relative fluorescence intensity at 100 µM peptide": "128 % of HIV peptide"}, {"binder": "FMLGEFLKL", "note": "[BIRC5-B1]", "mean relative fluorescence intensity at 1.5625 µM peptide": "1.9 % of HIV peptide", "mean relative fluorescence intensity at 3.125 µM peptide": "22.3 % of HIV peptide", "mean relative fluorescence intensity at 6.25 µM peptide": "36.1 % of HIV peptide", "mean relative fluorescence intensity at 25 µM peptide": "61.7 % of HIV peptide", "mean relative fluorescence intensity at 50 µM peptide": "77.1 % of HIV peptide", "mean relative fluorescence intensity at 100 µM peptide": "117 % of HIV peptide"}, {"binder": "LTLGEFLKL", "note": "[BIRC5-H]", "mean relative fluorescence intensity at 1.5625 µM peptide": "1.7 % of HIV peptide", "mean relative fluorescence intensity at 3.125 µM peptide": "1.4 % of HIV peptide", "mean relative fluorescence intensity at 6.25 µM peptide": "10.8 % of HIV peptide", "mean relative fluorescence intensity at 25 µM peptide": "9.8 % of HIV peptide", "mean relative fluorescence intensity at 50 µM peptide": "18.9 % of HIV peptide", "mean relative fluorescence intensity at 100 µM peptide": "35.6 % of HIV peptide"}]}, {"biological_target": "T1, HLA-A*0201 molecule on human T2 cells", "experiment": "T2 cells expressing HLA-A*0201, anti-HLA-A2-PE, FACS", "remark": "another data set of the same source", "units": {"Concentration of peptide that induces 20% of HLA-A2 expression": "µM"}, "values": [{"binder": "FLPFGFILV", "note": "[IL13RA2-B]", "Concentration of peptide that induces 20% of HLA-A2 expression": 2.9, "In vitro binding affinity (relative to reference peptide HIV pol 589-597)": 0.3}, {"binder": "FMLGEFLKL", "note": "[BIRC5-B1]", "Concentration of peptide that induces 20% of HLA-A2 expression": 2.7, "In vitro binding affinity (relative to reference peptide HIV pol 589-597)": 0.8}, {"binder": "LTLGEFLKL", "note": "[BIRC5-H]", "Concentration of peptide that induces 20% of HLA-A2 expression": 53, "In vitro binding affinity (relative to reference peptide HIV pol 589-597)": 16.1}, {"binder": "FLPFGFILPV", "note": "[IL13RA2-L]", "In vitro binding affinity (relative to reference peptide HIV pol 589-597)": 0.3}]}, {"biological_target": "T1, HLA-A*0201 molecule on human T2 cells", "experiment": "T2 cells expressing HLA-A*0201, anti-HLA-A2-PE, FACS (Example 7)", "values": [{"binder": "FLPFGFILV", "note": "[IL13RA2-B]", "In vitro binding affinity (relative to reference peptide HIV pol 589-597)": 0.49}, {"binder": "ALPFGFILV", "note": "[comparative peptide 1A9V]", "In vitro binding affinity (relative to reference peptide HIV pol 589-597)": 3.06}, {"binder": "FLPFGFILM", "note": "[peptide 1F9M]", "In vitro binding affinity (relative to reference peptide HIV pol 589-597)": 2.62}, {"binder": "ILPFGFILA", "note": "[peptide 1I9A]", "In vitro binding affinity (relative to reference peptide HIV pol 589-597)": 2.22}]}, {"biological_target": "T1, HLA-A*0201 molecule on human T2 cells", "experiment": "T2 cells expressing HLA-A*0201, anti-HLA-A2-PE, FACS (Example 8)", "units": {"Concentration of peptide that induces 20% of HLA-A2 expression": "µM"}, "values": [{"binder": "FLPFGFILV", "note": "[IL13RA2-B]", "Concentration of peptide that induces 20% of HLA-A2 expression": 2.9, "In vitro binding affinity (relative to reference peptide HIV pol 589-597)": 0.3}, {"binder": "ALPFGFILV", "note": "[comparative peptide 1A9V]", "Concentration of peptide that induces 20% of HLA-A2 expression": 36.5, "In vitro binding affinity (relative to reference peptide HIV pol 589-597)": 3.6}, {"binder": "FLPFGFILPV", "note": "[IL13RA2-L]", "In vitro binding affinity (relative to reference peptide HIV pol 589-597)": 0.3}]}, {"biological_target": "T1, HLA-A*0201 molecule on human T2 cells", "experiment": "T2 cells expressing HLA-A*0201, anti-HLA-A2-PE, FACS (Example 9)", "units": {"Concentration of peptide that induces 20% of HLA-A2 expression": "µM"}, "values": [{"binder": "LMLGEFLKL", "note": "[peptide 2M]", "Concentration of peptide that induces 20% of HLA-A2 expression": 2.87, "In vitro binding affinity (relative to reference peptide HIV pol 589-597)": 3.38}, {"binder": "FMLGEFLKL", "note": "[BIRC5-B1]", "Concentration of peptide that induces 20% of HLA-A2 expression": 1.24, "In vitro binding affinity (relative to reference peptide HIV pol 589-597)": 1.46}, {"binder": "LTLGEFLKL", "note": "[BIRC5-H]", "Concentration of peptide that induces 20% of HLA-A2 expression": 95.9, "In vitro binding affinity (relative to reference peptide HIV pol 589-597)": 113}]}, {"biological_target": "T1, HLA-A*0201 molecule on human T2 cells", "experiment": "T2 cells expressing HLA-A*0201, anti-HLA-A2-PE, FACS (Example 9)", "remark": "another data set of the same source", "values": [{"binder": "LMLGEFLKL", "note": "[peptide 2M]", "mean relative fluorescence intensity at 0.1 µM peptide": "0.76 % of HIV peptide", "mean relative fluorescence intensity at 1 µM peptide": "8.37 % of HIV peptide", "mean relative fluorescence intensity at 10 µM peptide": "48.5 % of HIV peptide", "mean relative fluorescence intensity at 100 µM peptide": "75.2 % of HIV peptide"}, {"binder": "FMLGEFLKL", "note": "[BIRC5-B1]", "mean relative fluorescence intensity at 0.1 µM peptide": "1.07 % of HIV peptide", "mean relative fluorescence intensity at 1 µM peptide": "17.4 % of HIV peptide", "mean relative fluorescence intensity at 10 µM peptide": "65.1 % of HIV peptide", "mean relative fluorescence intensity at 100 µM peptide": "102 % of HIV peptide"}, {"binder": "LTLGEFLKL", "note": "[BIRC5-H]", "mean relative fluorescence intensity at 0.1 µM peptide": "0 % of HIV peptide", "mean relative fluorescence intensity at 1 µM peptide": "0 % of HIV peptide", "mean relative fluorescence intensity at 10 µM peptide": "3.52 % of HIV peptide", "mean relative fluorescence intensity at 100 µM peptide": "20.5 % of HIV peptide"}]}]}
